Assay: yeast display, Sf9 membrane polyspecificity reagent, FACS + sequencing; frameworks hold sequencing errors
Method in brief: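 Nanobodies from a synthetic yeast display library (Saccharomyces cerevisiae BJ5465), induced 36–48 hours with galactose, were stained 1 hour at 4 °C with 10% biotinylated, detergent-solubilized Sf9 membrane reagent, enriched on streptavidin microbeads, then FACS-sorted. Anti-HA (expression) and streptavidin (reagent binding) fluorescence set low and high (top ~1%) gates. Polyreactivity labels come from the gate of origin. Genes were colony-PCR amplified, MiSeq 2 × 250 sequenced and filtered by CDR length.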
In the case of “QVQLVESGGGLVQAGGSLRLSCAASGSILGRYAMGGYRQAPGKERELVASITRRAGTTYYADSVKGRFTISRDNAKNTVYLQKNSLKPEATAVYYCAARAYTNYYYWGQGTQVTVSS”, the “polyreactivity (PSR sort gate)” value is reported as “high polyreactivity”.
With “QVQLVESGGGFVQAGGSLRLSCAASGSTFYTYTLGWYRQAPGKERELVAAISSSGGDTYYADSVKGRFTISRDNAKNTVYLQMNSLKPEDTAVYYCAALGAFPSLEFDYWGQGTQVTVSS” the “polyreactivity (PSR sort gate)” value was “low polyreactivity”.
For “QVQLVESGGGLVQAGGSLRLSCAASGRTFPINTMGWYRQAPGKEREFVAAITLGGRTYYADSVKGRFTISRDNAKNTVYLQMNSLKPEDTAVYYCNARTYVRRPLGYWGQGTQVTVSS”, the “polyreactivity (PSR sort gate)” value was “high polyreactivity”.
For “QVQLVESGGGLVQAGGSLRLSCAASGSTIYPNAMGWYRQAPGQERELVAVISSGGSTYYADSVKGRFTISRDNAKNTVYLQMNSLKPEDTAVYYCAADRGTVSYLYSPRAVDYWGQGTQVTVSS”, the “polyreactivity (PSR sort gate)” value was “low polyreactivity”.
With “QVQLVESGGGLVQAGGSLRLSCAASGRTFGWYTKGWYRQAPGKERELVAAISRSGTSTYYADSVKGRFTISRDNAKNTVYLQMNSLKPEDTAVYYCAAGPWAYGRRHSYYSYGYWGQVTQVTVSS” the “polyreactivity (PSR sort gate)” value was “high polyreactivity”.
In the case of “QVQLVESGGGLVQAGGSLRLSCAASGRTFRANAMGWYRQAPGKERELVAAISQRGGNTYYADSVKGRFTISRDKAKNTVYIQMNSLKPEDTAVYYCAADITTYRRGRYEYEYWGQGTQVTVSS”, the “polyreactivity (PSR sort gate)” value is reported as “high polyreactivity”.
For “QVQLVESGGGLVQAGGSLRLSCAASGFIFYRYARGWYRQAPGKEREFVAAITRSAGGTYYADSVKGRFTISRDNAKNTVYLQMNSLKPEDTAVYYCAAVYRSGSRYYLGWYNYWGQGTQVTVSS”, the “polyreactivity (PSR sort gate)” value was “high polyreactivity”.
For “QVQLVESGGGLVQAGGSLRLSCAASGNTFGYNAMGWYRQAPGKERELVASITWSGGSTYYADSVKGRFTISRDNAKNTVYLQMNSLKPEDTAVYYCNADVRYGRDHWGQGTQVTVSS”, the “polyreactivity (PSR sort gate)” value was “low polyreactivity”.
For “QVQLVESGGGLVQAGGSLRLSCAASGSIFYSYAMAWYRQAPGKERELVAAITSGGSTYYADSVKGRFTISRDNAKNTVYLQMNTLKPEDTAVYYCAKRWPAYWGKGHGSWGQGTQVTVSS”, the “polyreactivity (PSR sort gate)” value was “high polyreactivity”.
In the case of “QVQLVESGGGLVQAGGSLRLSCAASGRIFQGYAMGWYRQAPGKERELVARITFRGARTYYADSVKGRFTISRDNAKITVYLHMNCLKPEDTAVYYFAKDAETYYWGSYKSLYDYWGQGTQVTVSS”, the “polyreactivity (PSR sort gate)” value is reported as “low polyreactivity”.
For “QVQLVESGVGLVQAGGSLRLSCAASGSTFQPYSMGRYRQAPGKERELVAAIRSLAGSTYYADSVKGRFTISRDNAKNTVYLQMNSLKPEDTAVYYCAAGYNPYVGLGWYPIYDFWGQGTQVTVSS”, the “polyreactivity (PSR sort gate)” value was “low polyreactivity”.
With “QVQLVESGGGLVQAGGSLRLSCAASGFIFYGYTMGWYRQAPGKERELVARISRRGGSTYYADSVKGRFTISRDNAKNTVYLQMNSLKPEDTAVYYCAAELRRLFYAYGYWGQGTQVTVSS” the “polyreactivity (PSR sort gate)” value was “low polyreactivity”.
With “QVQLVESGGGLVQAGGSLRLRCAASGLTYSNAMGWYRQAPGKERELVAAISWRGGRTYYADSVKGRFTISRDNAKNTVYLQMNSLKPEDTAVYYCAKYAHGHKWYGYWGQGTQVTVSS” the “polyreactivity (PSR sort gate)” value was “low polyreactivity”.
For “QVQLVESGGGLVQAGGSLRLSCAASGLTLRCNTMGWYRQAPGKERELVADITASAGSTYYADSVKGRFTISRDNAKNTVYLQMISLKPEDTAVYYCAARVYIAYISMDHWGQGTQVTVSS”, the “polyreactivity (PSR sort gate)” value was “low polyreactivity”.
With “QVQLVESGAGLVQAGGSLRLSCAASGSTFEVYAMGWYRQAPGKVMELVADISHIGGSTYSADSVMGRFTISRDNAKNTVYLQLNSLKPEDTAVYYCNAYTVYAYDYWGQGTQVTVSS” the “polyreactivity (PSR sort gate)” value was “low polyreactivity”.
With “QVQLVESGGGLVQAGGSLRLSCAASGIIFPYYTMGWYRQAPGKERELVAAISTSGGSTYYADSVKGRFTISRDNAKNTVYLQMNSLKPEDTAVYFCAAELSYDYSHDYWGQGTQVTVSS” the “polyreactivity (PSR sort gate)” value was “high polyreactivity”.
With “QLQLVESRGGLVQAGGSLRLSCASYGSIFIWYAMGWYRQATGKERELVAAITSSGSTNYADSVKGRFTISRDNAKNPVYLQMNSLKPEDTAVYYCAAEYTYYTYNLNYWGQGTQVTVSS” the “polyreactivity (PSR sort gate)” value was “low polyreactivity”.
In the case of “QVQLVESGGGLLQAGGSLRLSCAASGSIFLYYAMGWYRQAPGKERELVAGISRGGGTTYYADSVKGRFTISRDNAKNTVYLQMNSLKPEDTAFYYCATVFWRSKHEYWGQGTQVTVSW”, the “polyreactivity (PSR sort gate)” value is reported as “high polyreactivity”.
In the case of “QVQLVESGGGLVQAGGILRLSCAASGYILYGYAMGWYTQAPGKERELVAAISNDGSTYYADSVKGRFTISRDNAKNTVYLQMNSLKPEDTAVYYCNADAWRKVPHPGTGGRDYWGQGTQVTVSS”, the “polyreactivity (PSR sort gate)” value is reported as “high polyreactivity”.
With “QVQLVESGGGLVQAGGSLRLSCAASGSTFGHYAMRSYRQAPGKERQLVAGITDTDNHELRRLCEGRFTISRDNAKNTVYLQMNSLKPEDTAVYDCDAGSNAVFYDYGYWGQGTQVTVSS” the “polyreactivity (PSR sort gate)” value was “low polyreactivity”.
With “QVQLVESGGGLVQAGGSLRLSCAASGRTIKRYAMGWYRQAPGKERELVATISRSGSSTYYADSVKGRFTISRDNAKNTVYLQMNSLIPEDTAVYYCNAYVPDIWVNGYDSWGQGTQVTVSS” the “polyreactivity (PSR sort gate)” value was “high polyreactivity”.
In the case of “QVQLVESGGGLVQAGGSLRLSCAASGSTLYYNAMGWYRQAPGKESELVAAISWSGGSTYYADSVKGRFTISRDNAKNTVYLQMNSLKPEDTAVYYCAADQSTVLDVGSWGQGTQVTVSS”, the “polyreactivity (PSR sort gate)” value is reported as “low polyreactivity”.
With “QVQLVESGRGLVQAGGSLRISCAASGSIFRVNAMGWYRQAPGKERELVASISKTGTRTYYADSVKGRFTISRDNAKITVYLQMNSLKPEDTAVYYCAADKPRREYDYWGQGTQVTVSS” the “polyreactivity (PSR sort gate)” value was “low polyreactivity”.
With “QVQHVESGGGLVQAGGSLRLSCAASGLTFRVYAMGWYRQEPGKERELVAAITGGGGSTYADSVKGRFTISRENAKNTVYLQMNSLNPDDTAVYYCNIKGYYYKFDYWGQGTQVTVSS” the “polyreactivity (PSR sort gate)” value was “low polyreactivity”.
In the case of “QVQLVESAGGLVQAGGSLRLSCAASGRIFPYYAMGWYRQAPGKERELVAAITTDGGGTYYADSVKGRFTISRDNSKNTVYLQMNSMKPEDTAVYYCAVPSYQWYDPENYWGQGTQVTVSS”, the “polyreactivity (PSR sort gate)” value is reported as “low polyreactivity”.
With “QVQLVESGGGLVQAGGSLRLSCAASGSTFTLNAMVWYRQAPGKERELVADISWSSGRTYYADSVKGRFTISRDNAKNTVYLQMNSLKPEVSAVYYCATYDFWKVKFYAYYPEFDYWGQGTQVTVSS” the “polyreactivity (PSR sort gate)” value was “low polyreactivity”.
In the case of “QDKLVESGGGLVQEGGRLRLSCAASGRIFGNYAMGWYRQAPGKERELVAAIDLSGDSTYYADSVKGRFTISRDNAKYTVYLQMKSLKPEDTAVYYCAATDWFSEYYWGQGTQETVSS”, the “polyreactivity (PSR sort gate)” value is reported as “low polyreactivity”.
For “QVQLVESGGGLVQAGGSLRLSCAASGRIFPGYAMGWYRQAPGKERELVAAISSRGGSTYYADSVKGRFTISRDNAKHTVYLQMNSLKPEDTAVYYCAAEPSWWNVFYPGYNYWGQGTQVTVSS”, the “polyreactivity (PSR sort gate)” value was “high polyreactivity”.
In the case of “QVQLVESGGGLVQAGGSLRLSCAASGRTFEDNAMGWYRQAPGKERELVAAISSDGSTNYADSVKGRFTISRDNAKNTVYLQMNSLKPEDTAVYYCNATVYWPYDWRTSDYWGQGTQVTVSS”, the “polyreactivity (PSR sort gate)” value is reported as “low polyreactivity”.
With “QVQLVESGGGLVQAGGSLRLSCAASGFIFYWYVMGWYRQAPGKERELVAGISKNGTNTYYADSVKGRFTISRDNAKNTVYLQMNSLKPEDTAVYYCAARGYIRSRHYLEGYWGQGTQVTVSS” the “polyreactivity (PSR sort gate)” value was “high polyreactivity”.
With “QVQLVESGGGLVQAGGSLRLSCAASGFIFRYYAMGWYRQAAGTERELVAAISGGGSSTYYADSVKGRFTISRDNAKNTVYLQMNSLKPEDTAVYYSTARYYYPAIKYDYCGQGTQVTVSS” the “polyreactivity (PSR sort gate)” value was “low polyreactivity”.
With “QDQLVESGGCLVQAGLSLRLSCAASGSTFGPYAMGWYRQAPGKERELVADISGGSTNYADSVKGRFTISRDNAKNTVYLQLNSLKPEDTAFYYCATDDHVETVRRLYGDWGQGTQVTVSS” the “polyreactivity (PSR sort gate)” value was “low polyreactivity”.
In the case of “QVQLVESGGGLVQAGGSLRLSCAASGFTFAYHAMGWYRQAPGKERELVAGINSSGDGTYYADSVKGRFTISRDNAKNTVYLQMNSLKQEDTAVYYCAADYTGFYQDGSYVDYDYWGQGTQVTVSS”, the “polyreactivity (PSR sort gate)” value is reported as “low polyreactivity”.
For “QVQLVESGGGLVQAGGSLRLSCAASGFTFSYYAMGWYRQAPGKERELVAAISWSGGSTYSADSVKGRFTISRDNAKNTVYLQMNSLKPEDTAVYYCAAEVYFLATGTWYDYWGQGTQVTVSS”, the “polyreactivity (PSR sort gate)” value was “high polyreactivity”.
In the case of “QVQLVESGGGLVQAGGSLRLSCAASGGTFVYYTMGWYRQAPGKERELVAAISGRGGRTYYADSVKGRFTISRDNAKNTVYLQMNSLKPEDTAVYYCTATQIGPYYLPFDSWGQGTQVTVSS”, the “polyreactivity (PSR sort gate)” value is reported as “high polyreactivity”.
For “QVQLVESGGGLVQAGGSLRLSCAASGSTFLKNAMGWSRQAPGKERELVAAISYSTTRTYYADSVKGRFTISRDNAKNTVYLQMNSLKPEDTAVYYCNKASYWGSGFDYWGQGTQVTVSS”, the “polyreactivity (PSR sort gate)” value was “low polyreactivity”.
With “QVQLVESGGGLLQAGGSLRLSCAASGFIFRGYNMGWYRQAPGKERELVAAITTTSSTYYADSVKGRFTISRDNAKNTVYLQMNSLKPEDTAVYYCAALFYRYGYLYNYWGQGTQVTVSS” the “polyreactivity (PSR sort gate)” value was “high polyreactivity”.
With “QVQLVESGGGLVQAGGSLRLSCAASGITFAYNAMGSYRQAPGKERELVARITSGGRTYYADSVKGRFTISRDNAKNTVYLQMNSLKPEDTAVYYCNAKEGSRYRKYDYWGQGTQVTVSS” the “polyreactivity (PSR sort gate)” value was “low polyreactivity”.
In the case of “QVQLVESGGGLVQAGGSLRLSCAASGSIFDTYAMGCYRPAPGKERELVAAICWSDTSTYADSVKGRFTISRDNAKNTVYLQMNSMKTEDTAVSYCAADFYYYSYYEYVYWGQGTLVTVSS”, the “polyreactivity (PSR sort gate)” value is reported as “low polyreactivity”.
In the case of “QVQLVESGGGLVQEGGSLRLSCAASGRIFYFYAMGRYRQAPGKERELVADIDWSGDSTYYADSVKGRFTISRDNAKITVYLQMNSLIPEDTAVYYCNAAYYYYSTSYTYDYWGQGTQVTVSS”, the “polyreactivity (PSR sort gate)” value is reported as “low polyreactivity”.
For “QVQLVESGGGLVQAGGSLRLSCAASGRIFGGNAMGWYRQAPGKERELVAAITSGGGSTSYADSVKGRFTISRDNAKNTVYLQMNSLKPEDTAVYYCAAPATYGPFVIDTVYPRDGYWGQGTQVTVSS”, the “polyreactivity (PSR sort gate)” value was “low polyreactivity”.

From the nanobody polyreactivity screen of Harvey et al. (2022)
